The test has as its target actin from rabbit skeletal muscle (G-actin polymerized to F-actin) (rabbit) (UniProt P68135).

Chain of MBP-DRR1 dC (recombinant murine DRR1 lacking the C-terminal domain, MBP fusion) (domain or fragment) (Q78TU8 whole entry, the tested form may be a part): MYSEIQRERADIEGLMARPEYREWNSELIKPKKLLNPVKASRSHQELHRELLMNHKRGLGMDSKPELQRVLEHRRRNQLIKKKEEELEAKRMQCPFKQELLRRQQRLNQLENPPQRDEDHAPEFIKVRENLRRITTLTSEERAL

As for “MBP-DRR1 dC (recombinant murine DRR1 lacking the C-terminal domain, MBP fusion) (domain or fragment)”, the barbed end filament elongation rate in the presence of profilin (1.5 µM), TIRF microscopy, R = 0.5 was 36 % of control.
